Like-named read-outs stand apart in the source and are kept apart here.
T1: Cynomolgus CD3 epsilon Protein, His Tag (Acrobiosystems, Cat #CDE-05226) (cynomolgus (Macaca fascicularis), UniProt Q95LI5 22-117)
T1 construct: also called monkey CD3e; not shown: His tag
T1 sequence: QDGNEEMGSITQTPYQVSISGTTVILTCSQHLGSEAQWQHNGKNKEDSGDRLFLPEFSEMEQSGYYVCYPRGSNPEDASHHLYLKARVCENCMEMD


What was measured:
[1] = molecular target: T2, Histidine-tagged human CD3e protein (human, UniProt P07766 23-126); assay: SPR (Biacore), human CD3e
T2 construct: also called hCD3e-His; not shown: His tag

[2] = molecular target: T3, human CD3e (T-cell surface glycoprotein CD3 epsilon chain) (human, UniProt P07766 23-207); assay: flow cytometry, human PBMC, antibody 1 µg/mL, anti-human IgG Fc-Alexa Fluor647 (1:500), anti-hTcRβ-PerCP (1:30)
T3 construct: Target of the anti-hCD3e antibodies on human PBMC, Jurkat cells and cells expressing human CD3e; on T cells it is part of the CD3/TCR complex; also called hCD3e; CD3e on human PBMC
Procedure: (§1) PBMC cells were collected from a human subject. After being thawed, the cells were cultured for 3-4 hours. The medium was then discarded, and the cells were resuspended in phosphate-buffered saline (PBS). The cell concentration was then adjusted to 2×10⁶/25 μl PBS.
(§2) A 96-well plate was prepared. 25 ul of cell suspension was added to each well. […] The cells and the antibodies were incubated. After centrifuge, the residues were discarded. The samples were washed again. 25 ul of PBS was then added to each well to resuspend cells.
(§3) Anti-human IgG Fc-Alexa Fluror647 (1:500) and anit-hTcRβ PerCP (1:30) were then added to each well. The cells and the antibodies were incubated and then the cells were washed again by PBS. 300 ul of PBS was then added to each well to resuspend the cells. FACS was performed.

[3] = molecular target: T3, human CD3e (T-cell surface glycoprotein …); assay: flow cytometry, human PBMC, antibody 10 µg/mL, anti-human IgG Fc-Alexa Fluor647 (1:500), anti-hTcRβ-PerCP (1:30)
Procedure: as §1
A 96-well plate was prepared. 25 ul of cell suspension was added to each well. Anti-hCD3e antibodies with different combinations of humanized 1B1 heavy chain variants and humanized 1B1 light chain variants were diluted to 20 ug/ml (2×) in PBS, and were added to the 96-well plate. The cells and the antibodies were incubated. After centrifuge, the residues were discarded. The samples were washed again. 25 ul of PBS was then added to each well to resuspend cells.
as §3

[4] = molecular target: T3, human CD3e (T-cell surface glycoprotein …); assay: flow cytometry, human PBMC, antibody 0.1 µg/mL, anti-human IgG Fc-Alexa Fluor647 (1:500), anti-hTcRβ-PerCP (1:30)
Procedure: as §1, §2, §3

[5] = molecular target: T4, monkey CD3e (Macaca fascicularis) on PBMC (Macaca fascicularis, UniProt Q95LI5 22-198); assay: flow cytometry, Macaca fascicularis PBMC, antibody concentration not given, anti-human IgG Fc-Alexa Fluor647 (1:500), anti-hTcRβ-PerCP (1:30)
T4 construct: Target on PBMC from Macaca fascicularis; also called mfCD3e; monkey PBMC
Procedure: A 96-well plate was prepared. 25 ul of cell suspension was added to each well. Anti-hCD3 antibodies were added to the 96-well plate. The cells and the antibodies were incubated for 15 minutes at 4° C. 185 ul PBS was then added to each well. After centrifuge at 2000 rpm for 5 minutes, the medium was discarded. The samples were washed again. 25 ul of PBS was then added to resuspend cells.
Anti-human IgG Fc-Alexa Fluror647 (1:500) and anti-hTcRβ PerCP (1:30) were then added to each well. The cells and the antibodies were incubated for 15 minutes at 4° C. 185 ul PBS was then added to each well. After centrifuge, the residues were discarded. The samples were washed again. 25 ul of PBS was then added to resuspend cells. […] In contrast, anti-hTcRβ PerCP cannot bind to monkey PBMC.

[6] = molecular target: T3, human CD3e (T-cell surface glycoprotein …); assay: cell-based or functional assay
[7] = molecular target: T2, Histidine-tagged human CD3e protein; assay: SPR (Biacore), human CD3e; remark: listed apart in the source
[8] = molecular target: T1, Cynomolgus CD3 epsilon Protein, His Tag …; assay: SPR (Biacore), cynomolgus CD3e His tag
Procedure: The binding affinity of the anti-hCD3e antibodies with monkey CD3e (Cynomolgus CD3 epsilon Protein (SEQ ID NO: 39 AA Gln 22-Asp 117), His Tag, Acrobiosystems, Cat #CDE-05226) were also measured using surface plasmon resonance (SPR) using Biacore (Biacore, INC, Piscataway N.J.) by the methods as described in the examples.

[9] = molecular target: T3, human CD3e (T-cell surface glycoprotein …); assay: flow cytometry, human PBMC, antibody 0.1 ug/mL, anti-human IgG Fc-Alexa Fluor647 (1:500), anti-hTcRβ-PerCP (1:30)
Procedure: as §1, §2, §3

[10] = molecular target: T3, human CD3e (T-cell surface glycoprotein …); assay: flow cytometry, human PBMC, antibody 0.01 ug/mL, anti-human IgG Fc-Alexa Fluor647 (1:500), anti-hTcRβ-PerCP (1:30)
Procedure: as §1, §2, §3

[11] = molecular target: T3, human CD3e (T-cell surface glycoprotein …); assay: flow cytometry, human PBMC, antibody 1 ug/mL, anti-human IgG Fc-Alexa Fluor647 (1:500), anti-hTcRβ-PerCP (1:30)
Procedure: as §1, §2, §3

Binder | upper left quadrant, percent of cells AF647+ / hTcRβ-PerCP- [5] [%] | upper right quadrant, percent of cells AF647+ / hTcRβ-PerCP+ [5] [%] | EC50, luciferase of Jurkat-Luc-NFAT cells; antibody from supernatant [6] [µg/mL] | Kd [7] [nM] | koff [7] [s⁻¹] | kon [7] [M⁻¹ s⁻¹] | upper left quadrant, percent of cells AF647+ / hTcRβ-PerCP- [9] [%] | upper right quadrant, percent of cells AF647+ / hTcRβ-PerCP+ [9] [%] | upper left quadrant, percent of cells AF647+ / hTcRβ-PerCP- [10] [%] | upper right quadrant, percent of cells AF647+ / hTcRβ-PerCP+ [10] [%] | upper left quadrant, percent of cells AF647+ / hTcRβ-PerCP- [11] [%] | upper right quadrant, percent of cells AF647+ / hTcRβ-PerCP+ [11] [%] | also measured
1B1-H3K3-IgG1-LALA (antibody, V domains shown, Humanized; human IgG1 with LALA mutations; also called H3K3 (humanized 1B1)) VH: QVQLVQSGAEVKKPGASVKLSCKASGYTFTSYWMHWVRQRHGQGLEWIGNIYPDSGTTNYGEKFKTRVTLTVDTSTSTAYMELSSLRSEDTAVYYCTRDTSGQYYFDYWGQGTLVTVSS VL: DIVMTQSPDSLAVSAGERVTMNCKSSQSLLNSRTRKNYLAWYQHKPGQSPKLLIYWASTRESGVPDRFSGSGSGTDFTLTISSVQAEDVAVYYCVQSFSLRAFGGGTKLEIK | 86.8 | 9.46 |  |  |  |  |  |  |  |  |  |  | Kd [1]: 0.718 nM; koff [1]: 0.000501 s⁻¹; kon [1]: 698000 M⁻¹ s⁻¹; upper left quadrant, percent of cells AF647+ / hTcRβ-PerCP- [2]: 11.6%; upper right quadrant, percent of cells AF647+ / hTcRβ-PerCP+ [2]: 58.1%; upper left quadrant, percent of cells AF647+ / hTcRβ-PerCP- [3]: 9.61%; upper right quadrant, percent of cells AF647+ / hTcRβ-PerCP+ [3]: 63.7%; upper left quadrant, percent of cells AF647+ / hTcRβ-PerCP- [4]: 11.8%; upper right quadrant, percent of cells AF647+ / hTcRβ-PerCP+ [4]: 54.5%
10A4-H2K2-IgG1-LALA (antibody, V domains shown, Humanized; human IgG1 with LALA mutations; also called H2K2 (humanized 10A4)) VH: QVQLVQSGAEVKKPGASVKISCKASGYTFTSYYIHWVRQAPGQRLEFIGWIYPGNVNAKYNEKFKGRATITTDKSASTAYMELSSLRSEDTAVYYCAIKGGNYDWGQGTLVTVSS VL: DVVMTQSPLSLPVTLGQPASISCQSSQSLLDSDGKTYLNWLQQRPGQSPRRLIYLVSKLGSGVPDRFSGSGSGTDFTLKISRVEAEDVGVYYCWQGTHFPRTFGGGTKLEIK | 44.2 | 3.1 | 0.247 | 1.96 | 0.000134 | 68400 | 8.05 | 53.3 | 2.42 | 11.6 |  |  | EC50, luciferase of Jurkat-Luc-NFAT cells; purified antibody [6]: 0.263 µg/mL; Kd [8]: 8.21 nM; koff [8]: 0.000411 s⁻¹; kon [8]: 50100 M⁻¹ s⁻¹
10A4-H3K1-IgG1-LALA (antibody, V domains shown, Humanized; human IgG1 with LALA mutations; also called H3K1 (humanized 10A4)) VH: QVQLVQSGAEVKKPGASVKISCKASGYTFTSYYIHWVRQRPGQRLEFIGWIYPGNVNAKYNEKFKGRATLTTDKSASTAYMELSSLRSEDTAVYFCAIKGGNYDWGQGTLVTVSS VL: DVVMTQSPLSLPVTLGQPASISCQSSQSLLDSDGKTYLNWLQQRPGQSPRRLIYLVSKLGSGVPDRFSGSGSGTDFTLKISRVEAEDVGVYYCWQGTHFPRTFGGGTKVEIK | 52 | 2.39 | 0.198 | 2.12 | 0.00014 | 65900 | 10.7 | 55.6 | 2.62 | 12.9 | 14.5 | 75 | 
10A4-H3K2-IgG1-LALA (antibody, V domains shown, Humanized; human IgG1 with LALA mutations; also called H3K2 (humanized 10A4)) VH: QVQLVQSGAEVKKPGASVKISCKASGYTFTSYYIHWVRQRPGQRLEFIGWIYPGNVNAKYNEKFKGRATLTTDKSASTAYMELSSLRSEDTAVYFCAIKGGNYDWGQGTLVTVSS VL: DVVMTQSPLSLPVTLGQPASISCQSSQSLLDSDGKTYLNWLQQRPGQSPRRLIYLVSKLGSGVPDRFSGSGSGTDFTLKISRVEAEDVGVYYCWQGTHFPRTFGGGTKLEIK | 45.1 | 1.69 | 0.205 | 2.02 | 0.000126 | 62100 | 12.2 | 61.3 | 2.75 | 15.2 | 12.4 | 75.8 | 

Now from value to binder, other results behind:

upper left quadrant, percent of cells AF647+ / hTcRβ-PerCP- [5] [%] | upper right quadrant, percent of cells AF647+ / hTcRβ-PerCP+ [5] [%] | EC50, luciferase of Jurkat-Luc-NFAT cells; antibody from supernatant [6] [µg/mL] | Kd [7] [nM] | koff [7] [s⁻¹] | kon [7] [M⁻¹ s⁻¹] | upper left quadrant, percent of cells AF647+ / hTcRβ-PerCP- [9] [%] | upper right quadrant, percent of cells AF647+ / hTcRβ-PerCP+ [9] [%] | upper left quadrant, percent of cells AF647+ / hTcRβ-PerCP- [10] [%] | upper right quadrant, percent of cells AF647+ / hTcRβ-PerCP+ [10] [%] | upper left quadrant, percent of cells AF647+ / hTcRβ-PerCP- [11] [%] | upper right quadrant, percent of cells AF647+ / hTcRβ-PerCP+ [11] [%] | Binder | also measured
46 | 2.58 | 0.475 | 1.73 | 0.000107 | 62100 | 9.79 | 54.8 | 2.66 | 14 | 14.3 | 74.7 | 10A4-H3K3-IgG1-LALA (antibody, V domains shown, Humanized; human IgG1 with LALA mutations; also called H3K3 (humanized 10A4)) VH: QVQLVQSGAEVKKPGASVKISCKASGYTFTSYYIHWVRQRPGQRLEFIGWIYPGNVNAKYNEKFKGRATLTTDKSASTAYMELSSLRSEDTAVYFCAIKGGNYDWGQGTLVTVSS VL: not shown | 
68.5 | 3.45 | 0.234 | 1.31 | 8.91e-05 | 68100 | 9.91 | 51.2 | 2.56 | 12 | 12.4 | 76.8 | 10A4-H4K1-IgG1-LALA (antibody, V domains shown, Humanized; human IgG1 with LALA mutations; also called H4K1 (humanized 10A4)) VH: QVQLQQSGAEVKKPGASVRISCKASGYTFTSYYIHWVRQRPGQGLEFIGWIYPGNVNAKYNEKFKGRATLTTDKSASTAYMELSSLRSEDTAVYFCAIKGGNYDWGQGTLVTVSS VL: DVVMTQSPLSLPVTLGQPASISCQSSQSLLDSDGKTYLNWLQQRPGQSPRRLIYLVSKLGSGVPDRFSGSGSGTDFTLKISRVEAEDVGVYYCWQGTHFPRTFGGGTKVEIK | 

— patent US20210269525A1 (BIOCYTOGEN PHARMACEUTICALS BEIJING, published 2021)
